Source: IntAct's records for PubMed 22193721

B1: Beta-adrenergic receptor kinase 1 (Bos taurus (Bovine)), P21146 (parent)
chain: MADLEAVLADVSYLMAMEKSKATPAARASKKILLPEPSIRSVMQKYLEDRGEVTFEKIFSQKLGYLLFRDFCLKHLEEAKPLVEFYEEIKKYEKLETEEERLVCSREIFDTYIMKELLACSHPFSKSAIEHVQGHLVKKQVPPDLFQPYIEEICQNLRGDVFQKFIESDKFTRFCQWKNVELNIHLTMNDFSVHRIIGRGGFGEVYGCRKADTGKMYAMKCLDKKRIKMKQGETLALNERIMLSLVSTGDCPFIVCMSYAFHTPDKLSFILDLMNGGDLHYHLSQHGVFSEADMRFYAAEIILGLEHMHNRFVVYRDLKPANILLDEHGHVRISDLGLACDFSKKKPHASVGTHGYMAPEVLQKGVAYDSSADWFSLGCMLFKLLRGHSPFRQHKTKDKHEIDRMTLTMAVELPDSFSPELRSLLEGLLQRDVNRRLGCLGRGAQEVKESPFFRSLDWQMVFLQKYPPPLIPPRGEVNAADAFDIGSFDEEDTKGIKLLDSDQELYRNFPLTISERWQQEVAETVFDTINAETDRLEARKKTKNKQLGHEEDYALGKDCIMHGYMSKMGNPFLTQWQRRYFYLFPNRLEWRGEGEAPQSLLTMEEIQSVEETQIKERKCLLLKIRGGKQFVLQCDSDPELVQWKKELRDAYREAQQLVQRVPKMKNKPRSPVVELSKVPLIQRGSANGL
B2: Beta-adrenergic receptor kinase 1 (Bos taurus (Bovine)), P21146 (parent)
chain: B1 chain
partner: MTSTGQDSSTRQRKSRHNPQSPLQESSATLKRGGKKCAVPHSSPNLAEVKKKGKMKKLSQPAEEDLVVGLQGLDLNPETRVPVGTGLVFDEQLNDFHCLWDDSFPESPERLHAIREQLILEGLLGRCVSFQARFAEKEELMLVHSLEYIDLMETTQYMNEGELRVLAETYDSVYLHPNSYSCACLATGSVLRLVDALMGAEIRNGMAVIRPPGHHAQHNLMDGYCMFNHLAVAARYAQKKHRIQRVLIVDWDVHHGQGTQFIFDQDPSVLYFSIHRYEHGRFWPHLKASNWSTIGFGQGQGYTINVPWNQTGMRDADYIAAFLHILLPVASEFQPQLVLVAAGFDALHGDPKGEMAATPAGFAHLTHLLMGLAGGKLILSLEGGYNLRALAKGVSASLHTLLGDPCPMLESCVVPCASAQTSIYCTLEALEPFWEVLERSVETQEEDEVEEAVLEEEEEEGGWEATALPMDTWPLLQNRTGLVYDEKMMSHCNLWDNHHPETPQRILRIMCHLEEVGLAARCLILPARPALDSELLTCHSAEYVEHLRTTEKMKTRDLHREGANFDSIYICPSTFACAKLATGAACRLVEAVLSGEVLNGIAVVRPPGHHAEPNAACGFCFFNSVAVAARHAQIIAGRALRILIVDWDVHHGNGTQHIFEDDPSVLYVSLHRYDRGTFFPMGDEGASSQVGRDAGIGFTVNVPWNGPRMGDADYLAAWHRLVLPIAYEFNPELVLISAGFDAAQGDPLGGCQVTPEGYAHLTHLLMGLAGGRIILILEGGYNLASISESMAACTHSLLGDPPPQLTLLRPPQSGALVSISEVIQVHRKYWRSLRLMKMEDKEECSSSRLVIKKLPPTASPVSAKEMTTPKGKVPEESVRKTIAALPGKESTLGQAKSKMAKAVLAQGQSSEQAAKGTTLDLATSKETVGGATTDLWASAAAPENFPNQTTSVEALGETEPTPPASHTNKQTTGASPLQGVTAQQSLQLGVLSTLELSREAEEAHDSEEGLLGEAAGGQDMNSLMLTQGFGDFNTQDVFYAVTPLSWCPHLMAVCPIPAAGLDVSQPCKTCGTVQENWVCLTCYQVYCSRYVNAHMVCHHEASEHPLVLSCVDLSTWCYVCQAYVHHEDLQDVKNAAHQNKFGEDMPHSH

Variants of: B1
Details: with hdac6_human HDAC6, Q9UBN7
Sequence of hdac6_human HDAC6, Q9UBN7 (Q9UBN7 whole entry): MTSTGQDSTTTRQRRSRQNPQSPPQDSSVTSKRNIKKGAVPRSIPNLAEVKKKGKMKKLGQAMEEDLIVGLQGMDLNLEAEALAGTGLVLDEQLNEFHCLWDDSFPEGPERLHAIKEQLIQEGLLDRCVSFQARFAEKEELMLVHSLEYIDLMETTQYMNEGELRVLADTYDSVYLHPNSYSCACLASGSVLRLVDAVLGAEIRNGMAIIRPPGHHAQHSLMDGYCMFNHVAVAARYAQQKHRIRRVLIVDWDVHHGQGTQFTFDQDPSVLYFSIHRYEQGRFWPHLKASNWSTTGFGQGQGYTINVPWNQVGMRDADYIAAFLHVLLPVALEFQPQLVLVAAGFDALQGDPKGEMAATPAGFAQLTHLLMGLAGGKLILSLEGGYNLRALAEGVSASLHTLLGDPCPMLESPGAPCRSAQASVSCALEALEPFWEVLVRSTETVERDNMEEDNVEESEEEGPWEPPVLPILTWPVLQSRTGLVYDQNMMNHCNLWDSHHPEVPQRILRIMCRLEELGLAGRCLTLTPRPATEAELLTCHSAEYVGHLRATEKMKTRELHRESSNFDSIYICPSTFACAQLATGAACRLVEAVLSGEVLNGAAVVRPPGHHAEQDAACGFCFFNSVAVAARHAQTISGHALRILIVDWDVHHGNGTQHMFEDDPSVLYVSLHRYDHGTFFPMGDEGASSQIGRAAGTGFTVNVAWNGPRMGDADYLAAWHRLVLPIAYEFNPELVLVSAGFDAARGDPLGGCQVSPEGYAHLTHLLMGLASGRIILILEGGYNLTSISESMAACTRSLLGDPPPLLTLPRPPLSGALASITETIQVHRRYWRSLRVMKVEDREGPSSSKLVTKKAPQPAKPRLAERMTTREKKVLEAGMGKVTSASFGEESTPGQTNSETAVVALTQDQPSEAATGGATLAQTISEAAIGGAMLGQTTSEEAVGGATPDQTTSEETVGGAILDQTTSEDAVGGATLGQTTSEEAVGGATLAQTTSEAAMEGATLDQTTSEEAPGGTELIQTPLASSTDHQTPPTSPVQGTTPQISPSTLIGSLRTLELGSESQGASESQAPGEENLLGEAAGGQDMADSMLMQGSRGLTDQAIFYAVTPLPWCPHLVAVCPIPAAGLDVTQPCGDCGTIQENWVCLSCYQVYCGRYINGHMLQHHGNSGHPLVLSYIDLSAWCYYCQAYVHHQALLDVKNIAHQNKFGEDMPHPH

effect of a mutation on the interaction | Variant
disrupting interaction | K220R

Variants of: B1
Details: with hdac6_human HDAC6, Q9UBN7
Remark: another data set of the same source

effect of a mutation on the interaction | Variant
decreasing interaction | S670A

Variants of: B2
Details: with hdac6_mouse Hdac6, Q9Z2V5

effect of a mutation on the interaction | Variant
increasing interaction | K220R
